Laboratory results reported in article PMC9482650, “Quantitative fragmentomics allow affinity mapping of interactomes” (Nature Communications, 2022).
Substitutions are numbered along the chain they refer to.

Tests used:
Experiment in all cases: holdup assay
Set-up in all cases: key: below the threshold = too weak to quantify, mostly under pKd 3.1 to 4
Conditions in all cases: plain residues with an end cap or a label only (N-terminal biotin on a linker: ado-ado)
[1] = target: T1, SNTB1, Q13884
T1 sequence (Q13884 107-205, limits assumed, looked up): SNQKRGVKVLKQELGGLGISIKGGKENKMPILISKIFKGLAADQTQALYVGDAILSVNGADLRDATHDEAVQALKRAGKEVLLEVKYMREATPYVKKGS

[2] = target: GRID2IP_2, A4D2P6
[3] = target: T2, LIN7B, Q9HAP6
T2 sequence (Q9HAP6 88-185, limits assumed, looked up): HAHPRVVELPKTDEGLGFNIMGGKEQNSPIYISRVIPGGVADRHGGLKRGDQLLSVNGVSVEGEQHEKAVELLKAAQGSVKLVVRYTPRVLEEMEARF

[4] = target: DLG5_1, Q8TDM6
[5] = target: SCRIB_3, Q14160
[6] = target: T3, MPDZ_5, O75970
T3 sequence (O75970 695-796, limits assumed, looked up): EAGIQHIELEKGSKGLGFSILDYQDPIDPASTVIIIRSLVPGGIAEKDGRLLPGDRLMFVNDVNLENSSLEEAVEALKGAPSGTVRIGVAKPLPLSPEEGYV

[7] = target: FRMPD2_2, Q68DX3
[8] = target: LNX1_2, Q8TBB1
[9] = target: T4, TX1BP3, O14907
T4 sequence (O14907 10-122, limits assumed, looked up): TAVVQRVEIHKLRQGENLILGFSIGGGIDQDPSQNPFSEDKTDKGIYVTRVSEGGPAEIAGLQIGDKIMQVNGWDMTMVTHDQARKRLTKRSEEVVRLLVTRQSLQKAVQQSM

[10] = target: T5, ARHGAP21, Q5T5U3
T5 sequence (Q5T5U3 45-169, limits assumed, looked up): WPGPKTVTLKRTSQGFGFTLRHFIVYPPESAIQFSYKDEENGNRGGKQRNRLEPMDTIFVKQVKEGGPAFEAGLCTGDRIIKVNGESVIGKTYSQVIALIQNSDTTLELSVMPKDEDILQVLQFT

[11] = target: T6, GRIP1_4, Q9Y3R0
T6 sequence (Q9Y3R0 467-571, limits assumed, looked up): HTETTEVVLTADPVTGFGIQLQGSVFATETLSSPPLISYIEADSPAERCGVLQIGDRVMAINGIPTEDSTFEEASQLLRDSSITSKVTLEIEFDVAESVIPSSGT

[12] = target: T7, DLG3_1, Q92796
T7 sequence (Q92796 125-227, limits assumed, looked up): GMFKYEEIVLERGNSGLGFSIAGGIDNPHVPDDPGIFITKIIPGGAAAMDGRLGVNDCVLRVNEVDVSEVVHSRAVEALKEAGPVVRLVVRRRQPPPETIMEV

[13] = target: LAP2, Q96RT1
[14] = target: Inadl_6, Q8NI35
[15] = target: T8, TIAM2, Q8IVF5
T8 sequence (Q8IVF5 885-986, limits assumed, looked up): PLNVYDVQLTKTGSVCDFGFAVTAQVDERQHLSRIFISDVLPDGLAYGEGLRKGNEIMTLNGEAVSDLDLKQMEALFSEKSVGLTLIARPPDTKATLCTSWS

[16] = target: AHNAK1, Q09666
[17] = target: T9, MPP6, Q9NZW5
T9 sequence (Q9NZW5 125-219, limits assumed, looked up): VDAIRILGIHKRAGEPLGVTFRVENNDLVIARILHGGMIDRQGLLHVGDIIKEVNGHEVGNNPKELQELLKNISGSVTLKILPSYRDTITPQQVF

[18] = target: MAGI1_2, Q96QZ7
[19] = target: PICK1, Q9NRD5
[20] = target: GRASP, Q7Z6J2
[21] = target: FRMPD2_1, Q68DX3
[22] = target: SNX27, Q96L92
[23] = target: T10, MPDZ_10, O75970
T10 sequence (O75970 1624-1722, limits assumed, looked up): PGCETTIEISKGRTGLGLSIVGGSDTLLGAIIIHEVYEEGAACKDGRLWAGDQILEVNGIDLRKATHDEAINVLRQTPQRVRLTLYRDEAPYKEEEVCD

[24] = target: T11, PDZD2_2, O15018
T11 sequence (O15018 329-429, limits assumed, looked up): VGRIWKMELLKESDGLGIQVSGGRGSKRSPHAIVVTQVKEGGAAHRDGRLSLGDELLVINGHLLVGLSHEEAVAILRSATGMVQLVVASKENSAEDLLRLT

[25] = target: T12, LIN7C, Q9NUP9
T12 sequence (Q9NUP9 88-185, limits assumed, looked up): T2 sequence (Q9HAP6 88-185, limits assumed, looked up) with A2S, D13E, V35I, V40I, Q65H, S79K, R89K, A96S

Sequence of MAGI1_2, Q96QZ7 (Q96QZ7 456-580): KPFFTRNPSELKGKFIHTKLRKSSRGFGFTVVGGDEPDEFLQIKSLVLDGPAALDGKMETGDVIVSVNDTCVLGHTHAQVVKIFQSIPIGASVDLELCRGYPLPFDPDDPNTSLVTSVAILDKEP
Sequence of GRASP, Q7Z6J2 (Q7Z6J2 96-193): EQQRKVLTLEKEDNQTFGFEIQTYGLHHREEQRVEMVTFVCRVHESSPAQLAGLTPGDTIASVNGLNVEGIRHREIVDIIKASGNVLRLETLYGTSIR
Sequence of AHNAK1, Q09666 (Q09666 4-100): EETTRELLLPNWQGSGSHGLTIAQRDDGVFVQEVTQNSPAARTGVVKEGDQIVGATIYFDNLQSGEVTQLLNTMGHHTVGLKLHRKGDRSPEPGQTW
Sequence of LNX1_2, Q8TBB1 (Q8TBB1 371-470): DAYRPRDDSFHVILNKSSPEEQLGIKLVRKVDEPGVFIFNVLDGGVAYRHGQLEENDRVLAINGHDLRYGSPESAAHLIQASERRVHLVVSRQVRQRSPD
Sequence of PICK1, Q9NRD5 (Q9NRD5 17-115): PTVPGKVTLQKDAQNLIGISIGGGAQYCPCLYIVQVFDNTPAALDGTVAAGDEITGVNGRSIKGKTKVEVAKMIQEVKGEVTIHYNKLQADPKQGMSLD
Sequence of DLG5_1, Q8TDM6 (Q8TDM6 617-713): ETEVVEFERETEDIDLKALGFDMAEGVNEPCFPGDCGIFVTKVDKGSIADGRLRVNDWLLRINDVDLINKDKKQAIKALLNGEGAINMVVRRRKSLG
Sequence of Inadl_6, Q8NI35 (Q8NI35 1058-1167): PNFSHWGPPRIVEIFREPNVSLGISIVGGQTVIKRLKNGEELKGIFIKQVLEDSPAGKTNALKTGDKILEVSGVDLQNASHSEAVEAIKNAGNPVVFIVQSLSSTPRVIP
Sequence of LAP2, Q96RT1 (Q96RT1 other isoform, or with tags, fused parts or gaps): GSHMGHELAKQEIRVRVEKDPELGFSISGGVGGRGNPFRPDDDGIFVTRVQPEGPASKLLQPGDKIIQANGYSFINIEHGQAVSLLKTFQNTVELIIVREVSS
Sequence of FRMPD2_2, Q68DX3 (Q68DX3 944-1038): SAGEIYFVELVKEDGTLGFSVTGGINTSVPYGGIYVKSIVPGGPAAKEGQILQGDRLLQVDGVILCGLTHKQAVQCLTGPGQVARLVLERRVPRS
Sequence of FRMPD2_1, Q68DX3 (Q68DX3 770-861): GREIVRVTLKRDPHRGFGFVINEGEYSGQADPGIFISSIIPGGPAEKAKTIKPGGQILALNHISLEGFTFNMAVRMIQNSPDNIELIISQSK
Sequence of GRID2IP_2, A4D2P6 (A4D2P6 272-370): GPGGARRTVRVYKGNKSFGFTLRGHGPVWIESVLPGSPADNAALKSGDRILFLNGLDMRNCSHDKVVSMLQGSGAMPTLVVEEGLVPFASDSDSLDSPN
Sequence of SCRIB_3, Q14160 (Q14160 999-1103): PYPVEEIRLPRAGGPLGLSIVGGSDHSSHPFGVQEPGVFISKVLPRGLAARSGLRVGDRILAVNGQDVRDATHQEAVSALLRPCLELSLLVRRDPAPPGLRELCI

SKENVQETQI [LRRC4B, Q9NT99]
pKd [1]: 5.07
pKd [2]: 3.86
pKd [3]: 4.13
pKd [4]: below the threshold
pKd [5]: 4.88
pKd [6]: below the threshold
pKd [7]: 3.92
pKd [8]: below the threshold
pKd [9]: below the threshold
pKd [10]: below the threshold
pKd [11]: below the threshold
pKd [12]: 3.73
pKd [13]: 3.69
pKd [14]: 3.71
pKd [15]: 4.1
pKd [16]: below the threshold
pKd [17]: below the threshold
pKd [18]: below the threshold
pKd [19]: below the threshold
pKd [20]: below the threshold
pKd [21]: below the threshold
pKd [22]: 5.55
pKd [23]: below the threshold
pKd [24]: 3.97
pKd [25]: 3.88

VNKSKLLTDV [KCNA1, Q09470]
pKd [1]: below the threshold
pKd [2]: 3.71
pKd [3]: 3.78
pKd [4]: below the threshold
pKd [5]: 3.55
pKd [6]: below the threshold
pKd [7]: below the threshold
pKd [8]: below the threshold
pKd [9]: 4.22
pKd [10]: below the threshold
pKd [11]: below the threshold
pKd [12]: 3.66
pKd [13]: below the threshold
pKd [14]: below the threshold
pKd [15]: 3.95
pKd [16]: below the threshold
pKd [17]: below the threshold
pKd [18]: 4.19
pKd [19]: below the threshold
pKd [20]: below the threshold
pKd [21]: below the threshold
pKd [22]: below the threshold
pKd [23]: below the threshold
pKd [24]: 4.07
pKd [25]: below the threshold

NLSIEKETKL [ASNSD1, Q9NWL6]
pKd [1]: 5.22
pKd [2]: 4.26
pKd [3]: 4.47
pKd [4]: below the threshold
pKd [5]: 4.97
pKd [6]: below the threshold
pKd [7]: below the threshold
pKd [8]: below the threshold
pKd [9]: 3.53
pKd [10]: below the threshold
pKd [11]: below the threshold
pKd [12]: below the threshold
pKd [13]: 3.52
pKd [14]: 4.22
pKd [15]: 3.94
pKd [16]: below the threshold
pKd [17]: below the threshold
pKd [18]: below the threshold
pKd [19]: 3.95
pKd [20]: below the threshold
pKd [21]: below the threshold
pKd [22]: 5.65
pKd [23]: below the threshold
pKd [24]: 3.83
pKd [25]: 4.2

EVNETDDTKM [KCNJ1, P48048]
pKd [1]: below the threshold
pKd [2]: below the threshold
pKd [3]: below the threshold
pKd [4]: below the threshold
pKd [5]: 3.67
pKd [6]: below the threshold
pKd [7]: below the threshold
pKd [8]: below the threshold
pKd [9]: 4.15
pKd [10]: 3.96
pKd [11]: below the threshold
pKd [12]: below the threshold
pKd [13]: 3.5
pKd [14]: 3.54
pKd [15]: below the threshold
pKd [16]: below the threshold
pKd [17]: below the threshold
pKd [18]: below the threshold
pKd [19]: 4.17
pKd [20]: 3.77
pKd [21]: below the threshold
pKd [22]: 4.6
pKd [23]: below the threshold
pKd [24]: 3.5
pKd [25]: below the threshold
